Here are results for 8 molecules from patent US20220119536A1 (Boehringer Ingelheim, published 2022).

Holding throughout (assay): cell-based or functional assay
Assay [1] addresses T1, human TrkB receptor (human, UniProt Q16620 32-822).
Assay [2] has as its target T1, human TrkB receptor. This is another data set of the same source.
Assay [3] deals with T2, human VEGF-A (human, UniProt P15692-4 27-191).
Assay [4] addresses T2, human VEGF-A. This is another data set of the same source.
The target of assay [5] is T2, human VEGF-A. The source holds these as a separate data set.
Assay [6] addresses T2, human VEGF-A. The source holds these as a separate data set.
Assay [7] addresses T2, human VEGF-A. The source holds these as a separate data set.
The target in assay [8] is T2, human VEGF-A. The source holds these as a separate data set.

“And” between values parts separate entries of the source, which are not always exact repeats. Identical values can stand only once. Like-named read-outs stand apart in the source and are kept apart here.

T2 sequence (P15692 other isoform, or with tags, fused parts or gaps limits assumed): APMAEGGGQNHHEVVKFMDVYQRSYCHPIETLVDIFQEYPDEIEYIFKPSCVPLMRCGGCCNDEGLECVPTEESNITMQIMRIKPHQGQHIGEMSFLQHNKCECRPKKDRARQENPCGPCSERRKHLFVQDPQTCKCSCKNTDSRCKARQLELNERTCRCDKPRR
T1 sequence (Q16620 32-822): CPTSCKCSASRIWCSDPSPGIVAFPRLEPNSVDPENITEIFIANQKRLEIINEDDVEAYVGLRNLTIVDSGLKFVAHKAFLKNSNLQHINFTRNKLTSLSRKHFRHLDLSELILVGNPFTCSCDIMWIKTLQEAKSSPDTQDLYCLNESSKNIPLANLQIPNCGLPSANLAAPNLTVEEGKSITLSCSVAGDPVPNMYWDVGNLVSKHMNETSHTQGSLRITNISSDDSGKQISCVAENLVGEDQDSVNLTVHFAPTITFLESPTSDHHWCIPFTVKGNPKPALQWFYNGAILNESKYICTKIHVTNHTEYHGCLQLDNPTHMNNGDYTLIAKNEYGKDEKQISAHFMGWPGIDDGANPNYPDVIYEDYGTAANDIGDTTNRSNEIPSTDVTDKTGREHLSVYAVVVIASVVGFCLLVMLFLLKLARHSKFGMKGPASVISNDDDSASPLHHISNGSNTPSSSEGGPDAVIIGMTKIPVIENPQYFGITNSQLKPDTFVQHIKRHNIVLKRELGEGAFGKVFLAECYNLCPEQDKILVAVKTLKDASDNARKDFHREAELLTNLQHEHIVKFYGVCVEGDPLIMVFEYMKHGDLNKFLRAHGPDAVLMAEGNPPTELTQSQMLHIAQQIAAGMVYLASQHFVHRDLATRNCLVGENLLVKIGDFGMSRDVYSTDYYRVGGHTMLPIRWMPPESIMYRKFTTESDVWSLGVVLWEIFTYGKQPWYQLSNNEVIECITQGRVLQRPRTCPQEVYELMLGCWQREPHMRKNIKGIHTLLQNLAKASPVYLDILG

B1: human BDNF (ligand, UniProt P23560 129-247, looked up)
chain: HSDPARRGELSVCDSISEWVTAADKKTAVDMSGGTVTVLEKVPVSKGQLKQYFYETKCNPMGYTKEGCRGIDKRHWNSQCRTTQSYVRALTMDSKKRIGWRFIRIDTSCVCTLTIKRGR
Regarding B1, in assay [1], the “EC50 (pERK)” value stood at 0.282 nM and the “EC50 (pTrkB)” value stood at 1.28 nM. Besides, in assay [2], the “EC50 (pERK)” value was determined as 0.507 nM and the “EC50 (pTrkB)” value amounted to 1.22 nM.

B2: TPP-11736 (bispecific antibody, human IgG1, kappa, L234A L235A)
light: DIQMTQSPSSLSASVGDRVTITCRTSENVYSNLAWYQQKPGKAPKLLIYAASNLQSGVPSRFSGSGSGTDYTFTISSLQPEDIATYYCQHFWGSPFTFGQGTKLEIKRTVAAPSVFIFPPSDEQLKSGTASVVCLLNNFYPREAKVQWKVDNALQSGNSQESVTEQDSKDSTYSLSSTLTLSKADYEKHKVYACEVTHQGLSSPVTKSFNRGEC
heavy: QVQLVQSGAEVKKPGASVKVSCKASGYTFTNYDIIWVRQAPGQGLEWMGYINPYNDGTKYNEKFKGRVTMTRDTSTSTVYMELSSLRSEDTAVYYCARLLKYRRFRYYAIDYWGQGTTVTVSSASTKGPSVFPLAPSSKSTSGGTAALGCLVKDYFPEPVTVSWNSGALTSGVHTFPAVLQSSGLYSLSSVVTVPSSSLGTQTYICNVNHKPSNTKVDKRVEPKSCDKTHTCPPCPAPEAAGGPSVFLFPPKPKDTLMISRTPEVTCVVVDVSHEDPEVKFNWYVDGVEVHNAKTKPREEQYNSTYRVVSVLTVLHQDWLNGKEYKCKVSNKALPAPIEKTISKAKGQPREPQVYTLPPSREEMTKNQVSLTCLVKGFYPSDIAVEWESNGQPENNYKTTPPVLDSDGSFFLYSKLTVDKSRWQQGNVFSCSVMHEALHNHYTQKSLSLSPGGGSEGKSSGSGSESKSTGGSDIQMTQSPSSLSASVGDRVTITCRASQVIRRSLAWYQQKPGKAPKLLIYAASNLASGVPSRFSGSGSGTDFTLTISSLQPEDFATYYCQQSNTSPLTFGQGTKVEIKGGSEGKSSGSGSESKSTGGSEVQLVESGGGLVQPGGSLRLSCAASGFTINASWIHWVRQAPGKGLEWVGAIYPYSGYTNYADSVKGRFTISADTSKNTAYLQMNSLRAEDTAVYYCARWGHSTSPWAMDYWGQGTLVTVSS
For B2, in assay [3], the “IC50 (ERK1/2 phosphorylation)” value worked out at 9.1 nM and the “IC50 (p38 MAPK phosphorylation)” value came to 7.7 nM. Also, in assay [4], the “Bottom plateau (ERK1/2 phosphorylation, counts)” value worked out at 3690 counts; the “Bottom plateau (Src phosphorylation, counts)” value was determined as 6300 counts; the “IC50 (ERK1/2 phosphorylation)” value amounted to 5.6 nM; the “IC50 (Src phosphorylation)” value stood at 4 nM. In assay [5], the “IC50, inhibition of VEGF-induced ERK1/2 phosphorylation” value is ~4 nM and ~10 nM; the “IC50, inhibition of VEGF-induced p38 MAPK phosphorylation” value was about 7.4 nM. For the same molecule, in assay [6], the “Bottom plateau (ERK1/2 phosphorylation, counts)” value stood at 3690 counts; the “Bottom plateau (Src phosphorylation, counts)” value was 6300 counts; the “IC50 (ERK1/2 phosphorylation)” value amounted to 5.59 nM; the “IC50 (Src phosphorylation)” value amounted to 3.97 nM. Further, in assay [7], the “Bottom plateau (ERK1/2 phosphorylation, counts)” value was found to be 3690 counts; the “Bottom plateau (Src phosphorylation, counts)” value worked out at 6300 counts; the “IC50 (ERK1/2 phosphorylation)” value is 5.59 nM; the “IC50 (Src phosphorylation)” value stood at 3.97 nM. Also, in assay [8], the “Bottom plateau (ERK1/2 phosphorylation, counts)” value was determined as 3690 counts; the “Bottom plateau (Src phosphorylation, counts)” value came out at 6300 counts; the “IC50 (ERK1/2 phosphorylation)” value amounted to 5.59 nM; the “IC50 (Src phosphorylation)” value was 3.97 nM.

B3: TPP-11738 (bispecific antibody, human IgG1, kappa, L234A L235A)
light: B2 light
heavy: not shown
Turning to B3, in assay [5], the “IC50, inhibition of VEGF-induced ERK1/2 phosphorylation” value was ~4 nM and ~10 nM.

B4: TPP-14936 (bispecific antibody, human IgG1, kappa, L234A L235A)
light: B2 light
heavy: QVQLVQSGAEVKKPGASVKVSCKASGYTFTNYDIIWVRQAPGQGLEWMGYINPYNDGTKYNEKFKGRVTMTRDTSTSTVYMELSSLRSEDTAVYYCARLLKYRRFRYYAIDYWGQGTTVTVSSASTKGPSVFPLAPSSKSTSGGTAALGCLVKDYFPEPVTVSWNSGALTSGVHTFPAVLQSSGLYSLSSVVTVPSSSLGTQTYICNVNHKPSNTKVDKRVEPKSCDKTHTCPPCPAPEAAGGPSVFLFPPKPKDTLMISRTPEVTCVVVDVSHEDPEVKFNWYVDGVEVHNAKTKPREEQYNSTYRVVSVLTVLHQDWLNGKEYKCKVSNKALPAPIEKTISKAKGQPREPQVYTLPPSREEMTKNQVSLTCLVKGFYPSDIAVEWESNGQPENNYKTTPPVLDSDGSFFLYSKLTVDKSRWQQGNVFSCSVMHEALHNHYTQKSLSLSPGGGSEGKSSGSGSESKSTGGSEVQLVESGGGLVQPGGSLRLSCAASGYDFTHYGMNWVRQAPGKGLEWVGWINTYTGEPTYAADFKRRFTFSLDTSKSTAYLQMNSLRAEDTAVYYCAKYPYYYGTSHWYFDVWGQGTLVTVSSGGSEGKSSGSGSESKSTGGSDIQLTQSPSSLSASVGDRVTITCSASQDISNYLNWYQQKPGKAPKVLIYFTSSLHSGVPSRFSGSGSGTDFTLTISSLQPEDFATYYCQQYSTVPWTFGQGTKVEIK
In the case of B4, in assay [4], the “Bottom plateau (ERK1/2 phosphorylation, counts)” value was -341 counts; the “Bottom plateau (Src phosphorylation, counts)” value stood at 4650 counts; the “IC50 (ERK1/2 phosphorylation)” value was 3.5 nM; the “IC50 (Src phosphorylation)” value turned out to be 3.4 nM. For the same molecule, the “concentration for full inhibition of VEGF-induced HRMEC proliferation” value (“concentration for full inhibition” below) in assay [5] came to 1 nM. In addition, in assay [8], the “Bottom plateau (ERK1/2 phosphorylation, counts)” value is -340 counts; the “Bottom plateau (Src phosphorylation, counts)” value came to 4650 counts; the “IC50 (ERK1/2 phosphorylation)” value came out at 3.49 nM; the “IC50 (Src phosphorylation)” value is 3.4 nM.

B5: TPP-14937 (bispecific antibody, human IgG1, kappa, L234A L235A)
light: B2 light
heavy: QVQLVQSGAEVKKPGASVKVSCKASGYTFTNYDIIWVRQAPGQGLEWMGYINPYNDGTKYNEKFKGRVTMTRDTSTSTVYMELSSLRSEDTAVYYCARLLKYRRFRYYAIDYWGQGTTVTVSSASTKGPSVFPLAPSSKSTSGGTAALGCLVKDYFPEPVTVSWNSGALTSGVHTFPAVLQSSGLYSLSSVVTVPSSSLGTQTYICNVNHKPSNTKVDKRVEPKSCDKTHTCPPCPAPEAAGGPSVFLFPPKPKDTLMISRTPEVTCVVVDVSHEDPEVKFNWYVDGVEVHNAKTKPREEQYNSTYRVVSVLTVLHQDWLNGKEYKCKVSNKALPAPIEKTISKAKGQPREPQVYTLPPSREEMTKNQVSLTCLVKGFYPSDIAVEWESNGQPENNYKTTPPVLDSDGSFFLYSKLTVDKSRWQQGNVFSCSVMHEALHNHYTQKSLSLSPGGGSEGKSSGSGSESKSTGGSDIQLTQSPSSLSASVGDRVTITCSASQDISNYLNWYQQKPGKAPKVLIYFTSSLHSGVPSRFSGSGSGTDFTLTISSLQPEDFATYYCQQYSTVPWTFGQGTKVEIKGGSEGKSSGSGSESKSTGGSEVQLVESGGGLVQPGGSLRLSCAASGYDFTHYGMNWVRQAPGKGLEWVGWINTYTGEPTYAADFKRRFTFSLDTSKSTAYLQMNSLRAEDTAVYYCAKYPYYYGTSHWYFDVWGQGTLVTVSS
On to B5, for which, in assay [4], the “Bottom plateau (ERK1/2 phosphorylation, counts)” value was -927 counts; the “Bottom plateau (Src phosphorylation, counts)” value is 4570 counts; the “IC50 (ERK1/2 phosphorylation)” value was 5.6 nM; the “IC50 (Src phosphorylation)” value stood at 5.8 nM. In assay [5], the “concentration for full inhibition” value came to 4 nM. In assay [8], the “Bottom plateau (ERK1/2 phosphorylation, counts)” value was -926 counts; the “Bottom plateau (Src phosphorylation, counts)” value was found to be 4570 counts; the “IC50 (ERK1/2 phosphorylation)” value came to 5.58 nM; the “IC50 (Src phosphorylation)” value was determined as 5.83 nM.

B6: TPP-13788 (B20 IgG) (antibody, V domains shown)
VH: EVQLVESGGGLVQPGGSLRLSCAASGFTINASWIHWVRQAPGKGLEWVGAIYPYSGYTNYADSVKGRFTISADTSKNTAYLQMNSLRAEDTAVYYCARWGHSTSPWAMDYWGQGTLVTVSS
VL: DIQMTQSPSSLSASVGDRVTITCRASQVIRRSLAWYQQKPGKAPKLLIYAASNLASGVPSRFSGSGSGTDFTLTISSLQPEDFATYYCQQSNTSPLTFGQGTKVEIK
As for B6, in assay [3], the “IC50 (ERK1/2 phosphorylation)” value stood at 3 nM and the “IC50 (p38 MAPK phosphorylation)” value came out at 2.4 nM. In addition, the “fold increase of VEGF-A scavenging potency vs. TPP-11736” value in assay [5] was about 3 fold.

B7: TPP-14938 (bispecific antibody, human IgG1, kappa, L234A L235A)
light: DIQMTQSPSSLSASVGDRVTITCRASQVIRRSLAWYQQKPGKAPKLLIYAASNLASGVPSRFSGSGSGTDFTLTISSLQPEDFATYYCQQSNTSPLTFGQGTKVEIKRTVAAPSVFIFPPSDEQLKSGTASVVCLLNNFYPREAKVQWKVDNALQSGNSQESVTEQDSKDSTYSLSSTLTLSKADYEKHKVYACEVTHQGLSSPVTKSFNRGEC
heavy: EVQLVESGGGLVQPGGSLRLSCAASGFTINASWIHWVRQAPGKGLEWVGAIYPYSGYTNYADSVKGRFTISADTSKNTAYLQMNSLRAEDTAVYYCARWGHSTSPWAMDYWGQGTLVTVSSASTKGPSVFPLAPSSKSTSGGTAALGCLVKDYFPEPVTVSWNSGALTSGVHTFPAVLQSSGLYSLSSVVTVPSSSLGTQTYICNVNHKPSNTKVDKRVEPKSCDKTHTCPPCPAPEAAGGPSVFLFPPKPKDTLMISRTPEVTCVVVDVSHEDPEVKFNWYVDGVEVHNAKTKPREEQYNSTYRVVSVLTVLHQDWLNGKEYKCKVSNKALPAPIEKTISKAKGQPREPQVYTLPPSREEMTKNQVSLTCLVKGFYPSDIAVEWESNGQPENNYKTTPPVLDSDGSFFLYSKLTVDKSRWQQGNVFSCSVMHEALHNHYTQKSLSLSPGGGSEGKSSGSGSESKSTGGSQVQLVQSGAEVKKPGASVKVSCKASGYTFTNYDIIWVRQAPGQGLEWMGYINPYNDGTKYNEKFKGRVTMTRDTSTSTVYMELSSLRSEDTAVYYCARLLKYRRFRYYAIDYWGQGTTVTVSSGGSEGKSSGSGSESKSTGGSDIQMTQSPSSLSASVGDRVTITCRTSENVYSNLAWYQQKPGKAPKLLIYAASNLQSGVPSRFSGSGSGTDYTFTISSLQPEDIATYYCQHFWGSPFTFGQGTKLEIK
For B7, in assay [5], the “concentration for full inhibition” value was over 16 nM. In assay [6], the “Bottom plateau (ERK1/2 phosphorylation, counts)” value came out at 1330 counts; the “Bottom plateau (Src phosphorylation, counts)” value came to 5480 counts; the “IC50 (ERK1/2 phosphorylation)” value amounted to 2.71 nM; the “IC50 (Src phosphorylation)” value came to 1.8 nM. In assay [7], the “Bottom plateau (ERK1/2 phosphorylation, counts)” value was 1330 counts; the “Bottom plateau (Src phosphorylation, counts)” value amounted to 5480 counts; the “IC50 (ERK1/2 phosphorylation)” value is 2.71 nM; the “IC50 (Src phosphorylation)” value came to 1.8 nM.

B8: TPP-14939 (bispecific antibody, human IgG1, kappa, L234A L235A)
light: B7 light
heavy: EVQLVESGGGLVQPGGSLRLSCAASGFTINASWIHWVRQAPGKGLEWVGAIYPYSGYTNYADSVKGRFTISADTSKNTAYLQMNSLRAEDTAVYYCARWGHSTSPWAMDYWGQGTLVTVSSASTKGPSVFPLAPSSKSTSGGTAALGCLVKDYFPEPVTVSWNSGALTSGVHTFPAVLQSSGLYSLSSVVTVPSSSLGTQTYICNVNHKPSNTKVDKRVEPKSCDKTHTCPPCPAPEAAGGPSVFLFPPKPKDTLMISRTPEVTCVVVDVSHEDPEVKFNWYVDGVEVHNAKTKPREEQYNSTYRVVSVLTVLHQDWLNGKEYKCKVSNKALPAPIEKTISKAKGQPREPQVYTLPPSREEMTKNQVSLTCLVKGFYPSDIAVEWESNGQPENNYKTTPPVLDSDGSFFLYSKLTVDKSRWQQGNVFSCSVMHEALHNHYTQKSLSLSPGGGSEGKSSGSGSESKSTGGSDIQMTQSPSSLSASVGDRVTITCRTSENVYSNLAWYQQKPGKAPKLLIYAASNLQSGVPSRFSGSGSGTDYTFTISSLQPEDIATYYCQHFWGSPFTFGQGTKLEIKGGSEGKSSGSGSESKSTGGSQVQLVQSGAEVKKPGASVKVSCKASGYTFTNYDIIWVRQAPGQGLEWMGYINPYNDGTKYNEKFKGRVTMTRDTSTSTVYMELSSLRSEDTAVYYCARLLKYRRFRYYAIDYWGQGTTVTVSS
On to B8, for which the “concentration for full inhibition” value in assay [5] is over 16 nM. Besides, in assay [6], the “Bottom plateau (ERK1/2 phosphorylation, counts)” value amounted to 1140 counts; the “Bottom plateau (Src phosphorylation, counts)” value was found to be 5540 counts; the “IC50 (ERK1/2 phosphorylation)” value is 2.51 nM; the “IC50 (Src phosphorylation)” value came to 1.16 nM. Moreover, in assay [7], the “Bottom plateau (ERK1/2 phosphorylation, counts)” value was 1140 counts; the “Bottom plateau (Src phosphorylation, counts)” value amounted to 5540 counts; the “IC50 (ERK1/2 phosphorylation)” value was found to be 2.51 nM; the “IC50 (Src phosphorylation)” value is 1.16 nM.
